Data taken from paper PMC3547847, “A Newly Uncovered Group of Distantly Related Lysine Methyltransferases Preferentially Interact with Molecular Chaperones to Regulate Their Activity” (PLoS Genetics, 2013).

Key:
Experiment in all cases: pull-down; 500 ng GST-tagged METTL21D with 100 ng His-tagged protein and Glutathione Sepharose 4B beads, 1 hour at 4°C, 50 mM NaCl, 50 mM HEPES-KOH pH 7.6, 0.1% NP-40, 0.5% charcoal-stripped FBS; bound His-tagged proteins detected by anti-6X His Western blot; AdoMet or AdoHcy present in Figure 6E; VCP and ASPSCR1 also added together (more binding)
Conditions in all cases: both partners purified
VCP-His = target: T1, VCP-His (human, UniProt P55072 1-806)
T1 construct: VCP/p97, human; also called His-tagged VCP; wild-type VCP-His; source: E. coli One Shot BL21 Star (DE3), purified (Ni-NTA Agarose)
T1 sequence (P55072 whole entry): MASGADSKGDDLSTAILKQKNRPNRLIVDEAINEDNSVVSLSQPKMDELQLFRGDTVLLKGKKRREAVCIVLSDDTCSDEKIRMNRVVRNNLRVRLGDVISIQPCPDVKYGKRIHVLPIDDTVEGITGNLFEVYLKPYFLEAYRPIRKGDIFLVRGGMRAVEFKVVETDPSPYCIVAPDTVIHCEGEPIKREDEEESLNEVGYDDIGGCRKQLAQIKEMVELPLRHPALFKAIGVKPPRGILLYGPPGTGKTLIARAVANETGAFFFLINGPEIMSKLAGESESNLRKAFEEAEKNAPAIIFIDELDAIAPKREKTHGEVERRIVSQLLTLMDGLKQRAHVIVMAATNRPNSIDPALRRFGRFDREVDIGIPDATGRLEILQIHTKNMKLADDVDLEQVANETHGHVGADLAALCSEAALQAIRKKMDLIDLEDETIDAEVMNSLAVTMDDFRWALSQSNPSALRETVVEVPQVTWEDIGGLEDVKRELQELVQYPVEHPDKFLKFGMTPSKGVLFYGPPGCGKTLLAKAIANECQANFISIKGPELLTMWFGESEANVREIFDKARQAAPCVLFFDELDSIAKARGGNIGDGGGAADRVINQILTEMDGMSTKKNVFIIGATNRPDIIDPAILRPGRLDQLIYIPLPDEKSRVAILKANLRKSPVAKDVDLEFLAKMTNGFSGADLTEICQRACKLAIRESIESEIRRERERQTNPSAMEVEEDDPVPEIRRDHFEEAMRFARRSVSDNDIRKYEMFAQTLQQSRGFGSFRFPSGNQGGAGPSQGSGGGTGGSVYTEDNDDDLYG

VCP-His R155H = target: T2, VCP-His R155H (human, UniProt P55072 1-806, R155H)
T2 construct: VCP/p97, human, with the IBMPFD- and ALS-linked substitution R155H; also called VCP mutant R155H; source: E. coli One Shot BL21 Star (DE3), purified (Ni-NTA Agarose)
T2 sequence (P55072 whole entry R155H): as the sequence (P55072 whole entry) above, with R155H counted along it

VCP-His R159G = target: T3, VCP-His R159G (human, UniProt P55072 1-806, R159G)
T3 construct: VCP/p97, human, with the ALS-linked substitution R159G; also called VCP mutant R159G; source: E. coli One Shot BL21 Star (DE3), purified (Ni-NTA Agarose)
T3 sequence (P55072 whole entry R159G): as the sequence (P55072 whole entry) above, with R159G counted along it

VCP-His R191Q = target: T4, VCP-His R191Q (human, UniProt P55072 1-806, R191Q)
T4 construct: VCP/p97, human, with the IBMPFD- and ALS-linked substitution R191Q; also called VCP mutant R191Q; source: E. coli One Shot BL21 Star (DE3), purified (Ni-NTA Agarose)
T4 sequence (P55072 whole entry R191Q): as the sequence (P55072 whole entry) above, with R191Q counted along it

ASPSCR1-His = target: T5, ASPSCR1-His (human, UniProt Q9BZE9 1-553)
T5 construct: ASPSCR1/UBXD9, human; also called full-length ASPSCR1; His-tagged ASPSCR1; source: E. coli One Shot BL21 Star (DE3), purified (Ni-NTA Agarose)
T5 sequence (looked up): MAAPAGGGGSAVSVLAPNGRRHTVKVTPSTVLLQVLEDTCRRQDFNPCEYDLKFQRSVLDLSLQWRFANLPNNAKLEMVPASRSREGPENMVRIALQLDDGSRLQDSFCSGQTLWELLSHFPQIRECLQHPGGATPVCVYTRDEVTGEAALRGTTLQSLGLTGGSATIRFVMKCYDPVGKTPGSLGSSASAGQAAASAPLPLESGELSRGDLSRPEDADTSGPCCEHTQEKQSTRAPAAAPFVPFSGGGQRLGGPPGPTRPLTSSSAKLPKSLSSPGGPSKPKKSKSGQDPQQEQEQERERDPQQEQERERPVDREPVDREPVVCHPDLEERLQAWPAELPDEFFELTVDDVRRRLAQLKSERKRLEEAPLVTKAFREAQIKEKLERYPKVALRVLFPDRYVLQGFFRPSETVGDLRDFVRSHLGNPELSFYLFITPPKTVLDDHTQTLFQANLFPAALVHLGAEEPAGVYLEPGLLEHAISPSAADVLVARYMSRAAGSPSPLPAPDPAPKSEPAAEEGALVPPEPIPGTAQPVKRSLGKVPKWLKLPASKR

[1] = target: T6, C-terminal fragment of ASPSCR1 (residues 280–553) (human, UniProt Q9BZE9 280-553)
T6 construct: ASPSCR1/UBXD9, human, residues 280-553; also called C-terminal half of ASPSCR1; source: E. coli One Shot BL21 Star (DE3), purified (Ni-NTA Agarose)
T6 sequence (looked up): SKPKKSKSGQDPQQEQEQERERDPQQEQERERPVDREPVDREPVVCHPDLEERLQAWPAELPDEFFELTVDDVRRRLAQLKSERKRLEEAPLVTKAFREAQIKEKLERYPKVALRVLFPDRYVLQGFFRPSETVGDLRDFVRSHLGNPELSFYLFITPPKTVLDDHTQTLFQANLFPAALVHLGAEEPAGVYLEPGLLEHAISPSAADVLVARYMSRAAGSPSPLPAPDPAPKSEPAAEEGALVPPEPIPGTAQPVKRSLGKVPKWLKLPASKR

- binding result (VCP-His): binds
- binding result (VCP-His R155H): binds
- binding result (VCP-His R159G): binds
- binding result (VCP-His R191Q): binds
- binding result (ASPSCR1-His): binds
- binding result [1]: binds
B1: GST-METTL21D (enzyme, human, UniProt Q9H867 1-229, looked up)
chain: MADTLESSLEDPLRSFVRVLEKRDGTVLRLQQYSSGGVGCVVWDAAIVLSKYLETPEFSGDGAHALSRRSVLELGSGTGAVGLMAATLGADVVVTDLEELQDLLKMNINMNKHLVTGSVQAKVLKWGEEIEGFPSPPDFILMADCIYYEESLEPLLKTLKDISGFETCIICCYEQRTMGKNPEIEKKYFELLQLDFDFEKIPLEKHDEEYRSEDIHIIYIRKKKSKFPS
notes: METTL21D, human; also called GST-tagged METTL21D; wild type METTL21D; source: E. coli One Shot BL21 Star (DE3), purified (Glutathione Sepharose 4B)
